Experimental data reported in article PMC2927421, “Tyrosine-Phosphorylated Caveolin-1 Blocks Bacterial Uptake by Inducing Vav2-RhoA-Mediated Cytoskeletal Rearrangements” (PLoS Biology, 2010).
Positions count from the first letter of the chain named. Like-named read-outs stand apart in the source and are kept apart here. Where no end group is shown, it is not given here. [ ]: non-standard residue; d: D form. pY = N[C@@H](Cc1ccc(OP(=O)(O)O)cc1)C(=O)O

Assays:
[1] = target: Phospholipase Cγ1 (PLCγ1) (UniProt P19174); assay: biotin-peptide streptavidin pull-down from lysate; settings: reference: non-phosphorylated peptide; sites Y14
Vav2 = Vav2 (UniProt P52735); assay: biotin-peptide streptavidin pull-down from lysate; settings: reference: non-phosphorylated peptide; sites Y14
[2] = target: T1, SH2 domain of Abl2 (recombinant, on protein microarray) (human, UniProt P42684 173-263)
T1 chain: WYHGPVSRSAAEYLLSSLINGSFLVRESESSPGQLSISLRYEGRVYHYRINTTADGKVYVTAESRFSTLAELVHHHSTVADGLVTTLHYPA

[3] = target: T2, SH2 domain of Grb10 (recombinant, on protein microarray) (human, UniProt Q13322 493-574)
T2 chain: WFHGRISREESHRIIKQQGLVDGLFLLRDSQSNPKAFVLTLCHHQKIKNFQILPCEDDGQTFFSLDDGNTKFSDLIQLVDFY

[4] = target: T3, SH2 domain of Abl1 (recombinant, on protein microarray) (human, UniProt P00519 127-217)
T3 chain: T1 chain with S9N, L18G, L35R, T53A, A54S, V58L, T61S, A62S, S67N, V84I

[5] = target: T4, SH2 domain of SH2D3C (recombinant, on protein microarray) (human, UniProt Q8N5H7 220-319)
T4 chain: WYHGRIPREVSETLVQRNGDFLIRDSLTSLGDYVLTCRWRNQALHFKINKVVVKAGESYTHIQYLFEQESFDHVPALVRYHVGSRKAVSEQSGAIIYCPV

[6] = target: T5, SH2 domain of Phospholipase Cγ1 (recombinant, on protein microarray) (human); assay: tandem NC SH2 domains
T5 chain: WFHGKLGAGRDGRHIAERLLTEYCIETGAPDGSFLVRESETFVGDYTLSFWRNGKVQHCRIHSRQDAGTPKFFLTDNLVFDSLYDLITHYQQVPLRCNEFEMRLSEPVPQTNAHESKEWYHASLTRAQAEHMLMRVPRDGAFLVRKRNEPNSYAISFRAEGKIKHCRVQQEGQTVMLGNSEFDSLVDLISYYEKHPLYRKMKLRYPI

[7] = target: T6, SH2 domain of Phospholipase Cγ1 (recombinant, on protein microarray) (human); assay: peptide or protein array; recombinant human SH2 and PTB domains spotted on protein microarrays; probed in duplicate with eight concentrations of fluorescently labeled peptide, 10 nM to 5 µM; fluorescence fit to a saturation binding equation; settings: both partners purified
T6 chain: T5 chain

[8] = target: T7, SH2 domain of the RhoA GEF Vav2 (recombinant, on protein microarray) (human, UniProt P52735 673-767); assay: as above; settings: both partners purified
T7 construct: Vav2, human, SH2 domain
T7 sequence (looked up): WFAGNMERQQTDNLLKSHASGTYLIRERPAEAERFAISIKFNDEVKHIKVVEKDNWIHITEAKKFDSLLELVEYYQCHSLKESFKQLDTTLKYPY

[9] = target: T8, SH2 domain of Abl2 (recombinant, on protein microarray) (human, UniProt P42684 173-263); assay: as above; settings: both partners purified
T8 construct: Abl2, human, SH2 domain
T8 sequence (looked up): T1 chain

[10] = target: T9, SH2 domain of SH2D3C (recombinant, on protein microarray) (human, UniProt Q8N5H7 220-319); assay: as above; settings: both partners purified
T9 construct: SH2D3C, human, SH2 domain
T9 sequence (looked up): T4 chain

[11] = target: T10, SH2 domain of Grb10 (recombinant, on protein microarray) (human, UniProt Q13322 493-574); assay: as above; settings: both partners purified
T10 construct: Grb10, human, SH2 domain
T10 sequence (looked up): T2 chain

[12] = target: T11, SH2 domain of Abl1 (recombinant, on protein microarray) (human, UniProt P00519 127-217); assay: as above; settings: both partners purified
T11 construct: Abl1, human, SH2 domain
T11 sequence (looked up): T1 chain with S9N, L18G, L35R, T53A, A54S, V58L, T61S, A62S, S67N, V84I

RasA1 = target: T12, RasA1 (Homo sapiens)
T12 chain: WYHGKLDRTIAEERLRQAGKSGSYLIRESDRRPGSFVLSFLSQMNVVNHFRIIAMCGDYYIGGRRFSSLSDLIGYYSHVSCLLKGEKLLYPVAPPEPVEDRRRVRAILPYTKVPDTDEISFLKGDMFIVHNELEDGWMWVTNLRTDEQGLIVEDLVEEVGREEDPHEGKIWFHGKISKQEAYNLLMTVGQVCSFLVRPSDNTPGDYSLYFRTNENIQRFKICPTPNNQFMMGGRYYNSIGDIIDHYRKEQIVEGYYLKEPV

Q: How did the “binding against the reference” value [1] turn out when “caveolin-1 (Cav1) 7-21 (from UniProt Q03135) pTyr14 peptide” was run?
A: The value was “stronger”.

Q: What about the “binding against the reference” value (Vav2) of the same molecule?
A: The value was “stronger”.

B1: fluorescently labeled Tyr14-Cav1 phosphopeptide (residues 5-22 of Cav1, phosphorylated on Tyr14) (peptide, UniProt Q03135 5-22, looked up)
peptide: KYVDSEGHL[pY]TVPIREQG
modifications: also: fluorescent label (position not given here)
notes: caveolin-1 (Cav1), human, residues 5-22; also called Tyr14-Cav1 phosphopeptide (18 amino acids); source: synthetic peptide, purified to >95% by preparative reverse phase HPLC
Q: How did the Kd [2] turn out when B1 was run?
A: Its Kd is 0.058 µM.

Q: And the Kd [3]?
A: Its Kd is 1.37 µM.

Q: What about the Kd [4] of the same molecule?
A: The Kd was 1.64 µM.

Q: And the Kd [5]?
A: Its Kd is 0.874 µM.

Q: What about the Kd [6] of the same molecule?
A: Its Kd is 0.482 µM.

Q: What about the Kd [7] of the same molecule?
A: Its Kd is less than 2 µM.

Q: What about the Kd [8] of the same molecule?
A: The Kd was 0.222 µM.

Q: What about the Kd [9] of the same molecule?
A: Its Kd is less than 2 µM.

Q: What about the Kd [10] of the same molecule?
A: The Kd was less than 2 µM.

Q: And the Kd [11]?
A: Its Kd is less than 2 µM.

Q: And the Kd [12]?
A: Its Kd is less than 2 µM.

Q: How did the Kd (RasA1) turn out when KYVDSEGHLYTVPIREQG (also: fluorescent label (position not given here)) [fluorescently labeled non-phosphorylated Cav1 peptide (residues 5-22 of Cav1)] was run?
A: Its Kd is 1.39 µM.
